From patent publication US20190352376A1

Target: peptide of Example 1 (influenza virus)
Experiment: SPR, mAb captured on anti-mouse Fc, peptide injected

B1: F211-9D1 (antibody, V domains shown)
VL: DIVMSQSPSSLAVSVGEKVTMSCKSSQSLLNSRNQKNHLAWYQQKPGQSPKLLIYWASTRESGVPDRFSGDGSGTDFTLTISSVKAEDLAVYYCQQYYTYRTFGGGTKLEIK
VH: DVQLQESGPGLVKPSQSLSLTCSVTGYSITSDYYWNWIRQFPGNKLEWMAYIGYDGSKNYNPSLKNRISITRDTSKNQFFLKLNSVTTDDTATYYCTRDRANWDDYFDYWGQGTTLTVSS
B1 was tested, and the Kd was 0.393 nM.
